HA tag and linker = not defined here

Assay [1] deals with FGFRs expressed on NIH3T3 cells. Description: equilibrium binding titration on NIH3T3 cells at 4 C, flow cytometry with anti-His antibody. (In flow cytometry, cells or beads pass a laser one at a time.)
Assay [2] shares this target. The assay is described as follows: cell-based or functional assay.
The target in assay [3] is T1, human FGFR1 beta (IIIc)-Fc (R&D Systems) (human, UniProt P11362-14 22-285, limits assumed).
T1 construct: Bought reagent; also called FGFR1-Fc; Fc fusion of FGFR1; not shown: Fc domain (detected with anti-human IgG)
T1 sequence (looked up): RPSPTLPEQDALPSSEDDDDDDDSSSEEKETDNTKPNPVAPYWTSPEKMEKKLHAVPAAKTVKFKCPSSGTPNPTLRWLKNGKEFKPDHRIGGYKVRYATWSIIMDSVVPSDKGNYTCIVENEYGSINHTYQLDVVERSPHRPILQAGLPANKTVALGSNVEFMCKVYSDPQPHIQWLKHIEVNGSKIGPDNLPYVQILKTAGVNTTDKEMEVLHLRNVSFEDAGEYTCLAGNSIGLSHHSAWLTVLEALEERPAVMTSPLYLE
Description: flow cytometry, yeast-displayed peptide with soluble FGFR1-Fc. As to the method:
FIG. 15. Non-binding of peptide artifacts to FGFR1-Fc. Yeast cells expressing RTTTS or HTTS peptides on their cell surface were incubated with 10 nM FGFRT-Fc. Cells were stained with fluorescent antibodies for expression (α-c-myc) and binding (α-FGFR1-Fc).
50,000 induced yeast cells were incubated with various concentrations of FGFR1-Fc in phosphate-buffered saline with 1 g/L BSA (PBSA) at room temperature. Cells were incubated in sufficiently large volumes to avoid ligand depletion and long enough times (typically 3 to 24 hours) to reach equilibrium. During the last 30 minutes of incubation, yeast cells were incubated with 1:2500 dilution of chicken anti-c-Myc (Invitrogen) in PBSA. Yeast were pelleted, washed, then incubated with 1:200 dilution of secondary antibodies on ice for 10 min: anti-Human IgG-FITC (Sigma Aldrich) against FGFR1-Fc and anti-chicken-IgY-PE (Santa Cruz Biotechnology) against anti-c-myc. Yeast were washed, pelleted, and resuspended in PBSA immediately before analysis by flow cytometry using EMD Millipore Guava EasyCyte. Flow cytometry data were analyzed using FlowJo (v7.6.1). Binding curves were plotted and Kd values were obtained using GraphPad Prism 6.

For “recombinant soluble FGF1 L131R mutant with N-terminal 6x His tag (E. coli, pBAD/His B) (from UniProt P05230 16-155) (ligand)”, the dissociation constant Kd in assay [1] turned out to be 10 nM. Moreover, the inhibition of ERK phosphorylation induced by 1 nM wild type FGF1 in NIH3T3 cells (Western blot against phosphoERK), IC50 in assay [2] worked out at 1 nM.
“recombinant soluble wild-type FGF1 with N-terminal 6x His tag (E. coli, pBAD/His B) (from UniProt P05230 16-155) (ligand)” came in with a Kd in assay [1] of 10 nM.

B1: yeast-displayed peptide artifact HTTS (peptide)
chain: {Aga2p-HA tag and linker}-HTTS-{c‑myc tag}
modifications: reading uncertain
notes: not shown: Aga2p of S. cerevisiae, yeast display fusion partner (pCT vector); HA tag and vector linker; C-terminal c-myc tag
Consider B1, for which the binding result in assay [3] is “no binding (tested: 10 nM)”.

B2: yeast-displayed peptide artifact RTTTS (peptide)
chain: {Aga2p-HA tag and linker}-RTTTS-{c‑myc tag}
modifications: reading uncertain
notes: as for B1
As for B2, in assay [3], the binding result is “no binding (tested: 10 nM)”.

A word on the Kd: it is a measure of binding affinity in units of concentration. A high value points to a looser complex.

Source of the values: patent US20220249611A1 (Stanford University, published 2022).
